From the nanobody polyreactivity screen of Harvey et al. (2022)

Assay: yeast display, Sf9 membrane polyspecificity reagent, FACS + sequencing; frameworks hold sequencing errors
Outline: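 Genes from sorted yeast were amplified by colony PCR, read by MiSeq 2 × 250 sequencing and filtered on CDR length. These cells carried a synthetic nanobody library in Saccharomyces cerevisiae BJ5465 and were sorted by FACS into low and high (top ~1%) gates on anti-HA and streptavidin fluorescence. Polyreactivity is labelled according to the gate of origin.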

Sequence | polyreactivity (PSR sort gate)
QVQLVESGGGVVQAGGSLRLSCAGSGRTFGPYAMGWYRQAPGKERELVAAIRYIDDSTFYADSVKGRFTISRDKAKNTVYLQMNSLKPEDTAVYYCAAQRRVVGRHGLSLIRYDYWGQGTQVTVTS | low polyreactivity
QVQLVESGGGVVQAGGSLRLTCAASGFTFSYNAMGWYRQAPGKERQLVAAISYSGGSTYYADSVKGRFTISRDTAKNTVYLQMNSLIPEHTAVYYCAAYSYYNYPNRGVYRGYYYWGQGTQGTVSS | high polyreactivity
QVQLVESGGGVVQARGSLRLSCAASGRIFYGYAMGWYRQAPGKERELVAAITRSSSTYYADSVKGRFTISRDNAKNTVYLQMNSLKPEDTAVYYCAAASRRSGASSWYDYWGQGTQVTVSS | high polyreactivity
QVQLVESGGGVVQARGSLRLSCAASGSPFWYHDMGWYRQAPGKERELVASISWSGGDTYYADSVKGRFTISRDNAKNTVYLQMNSLKTVDTAVYYCAAATLVSFWLDYWGEGTQVTVSS | low polyreactivity
QVQLVESGGPLVQAGGSLRLSCAASGRTIRYYTMGWYRQAPGKEREFVAAITSTGGTYYADSVKGRFTSSRDNAKNTVYLQRTSLKQEDTGVYYCAATFIQFVVNVQLYDYDYWGQGTQVTVSS | low polyreactivity
QVQLVESGGRIDQAGGRLRLSCAASGSIFDWYAMGWYRQAPGKERELVAAIDSSGSSTYYADSVKGRFTISRDNAKNTVYLQMNSLIPEDTAVYYCAADSDWIRYWFGSLYGSDYWGQGTQVSVSS | low polyreactivity
QVQLVESGGRIVQAGGSLRLSCAASGRTFPINAMGWYRQAPGKERELVASIRWTDGTTYYADSVKGRFTISRDNAKNTVYLQMNSLKPEDTAVYYCAADAEGSASKYDYWGQGTQVTVSS | low polyreactivity
QVQLVESGGRLVQAGCSLRLSCAASGFIFRLYAKGWYRQAPGKERELVAAISDDASTNYADSVKGRFTISRDNAKNTVYLQMNSLKPEDTAVYYCAAAVKRGYAQSFISDGYGYWGEGTQVTVSS | low polyreactivity
QVQLVESGGRLVQAGGRLRLSCAASGFIVYFNAMGWYIQAPGKERELVAAIRISGGSTYYADSVKGRFTISRDNAKNTVYLQMNSLKPEDTAVYYCATAPENYVSVGYDYWGQGTQVTVSS | low polyreactivity
QVQLVESGGRLVQAGGRLRLSCAASGRTFPIYVMGWYRQAQGKERELVATIDSDGTTNYADSVKGRFTISRDNAKNTVSLQMNSLKPEDTAVYYCAADSGWWEYCEDYWGQGTQVTVSS | low polyreactivity
QVQLVESGGRLVQAGGRLRLSGAASGSNFTDNAMGWYRQAPGKERELVAGISERGSSTYYADSVKGRFTISRDNAKNTVYLQMNSLKRVDTAVYYCSAEDVGRYWSSTHNWARGDYWGQGTQVTVSS | low polyreactivity
QVQLVESGGRLVQAGGSIRLSCAASGRTFYTNAMGWYRQAPGKERELVAAISSGGSTYYADSVKGRFTISRDNAKNTVYLQMNSLKPEDTAVYYCNVRRGGWGYRYYYWGQGTQVTVSS | high polyreactivity
QVQLVESGGRLVQAGGSIRLSCAASGSIFVQYAMGWYRPAPGKERELVAAIDFSDTSTYYADSVKGLFTISRDNAKITVYLQMNSLKPEDTAVYYCAAEEDSPSRSAIAVEEYLGQGTQVTVSS | low polyreactivity
QVQLVESGGRLVQAGGSLLLSCDASGSIFRHYAMGWYRQAPWQERELVAAISAIGGSTYADSVKGRFTISRDNAKNTVYLQMNSLIPEDTGVYYCNARSYTSYVYHEAGEFDYWGQGTQVTVSS | low polyreactivity
QVQLVESGGRLVQAGGSLRLRCAASGRTFYWNGMGWYRQSPGKERELVAAITVSVGSTYFADSVKGRFTISRDNAKNTVSLQMNSLKPEDTAVYYCNADAYYEARIWSYRKGDYWGQGTQVTVSS | low polyreactivity
QVQLVESGGRLVQAGGSLRLSCAASGFIFGFYAMGWYRQAPGKELELVAANSWSGGSTYYADSVKGRFTISRDKAKNTVFIQMNSLKPVDTAVYYCAAYFVYLDDAVTYDYWGQGTHVTVSS | low polyreactivity
QVQLVESGGRLVQAGGSLRLSCAASGFIIVFYDMGWYRQAPGKERELVAGITRNDGSTYYADSVKGRFKISRDNAKNTVYLQMNSLKPEDTAVYYCAADRVRRNDKLAYDYWGQGTQVTVSS | low polyreactivity
QVQLVESGGRLVQAGGSLRLSCAASGFTFDVYAMGWYRQAPGKERELVASITLRDGSTYYADSVKGRFTISRDNAKNTVYLQMNSLKPEDTAVYYCAADDSRATYEFEYWGQGTQVTVSS | low polyreactivity
QVQLVESGGRLVQAGGSLRLSCAASGFTFRYYAMGWYRQAPGKERELVAAINSGGSTNFADSVKGRFTISRDNAKNTVYLQMNSLKPEDTAVYYCAKRGRRGIVYLGSAEMDYWGQGTQVTVSS | low polyreactivity
QVQLVESGGRLVQAGGSLRLSCAASGFTFVYYAMGWYRQAPGKERELVAAVSWSGGTTYYADSVKGRFTISRDNAKNTVLLQMNSLKPEDTAVYYCNVYPAYNYFDYDYWGQGTQVTVSS | high polyreactivity
QVQLVESGGRLVQAGGSLRLSCAASGGTFVVYAMGWYSQARGKARELGAAITWIGDSTYYADSVKGRFTISRDNAKNTVYLQMNSLKPEDTAVYYCNAEGGYYLTEYGYWGQGTQETVSS | low polyreactivity
QVQLVESGGRLVQAGGSLRLSCAASGITFNVYAMGWYRQEPGKERELVAAITSSGATTYYADSVKGRFTISRDNAKNTVYLQMNSLKPEDTSVYYCAAKLSTRRYKYDYWGQGTQVTVSS | high polyreactivity

Sequence | polyreactivity (PSR sort gate)
QVQLVESGGRLVQAGGSLRLSCAASGITFTAYAMGWYRPAPGKERELVATINSTGITNYADSVKGRFTISRDNAKNTVYLQMNSLKPEDTAVYYCAADLLDISSYDGMDYWGQGTQVTVSS | low polyreactivity
QVQLVESGGRLVQAGGSLRLSCAASGLIFAWYAMGWYRQAPGKQRELVATISWNGDRTYYADSVKVRFTISRDNAKNTVYLQMNSVKPVDSAVYYCAARFGSGFNYWGQGNQVTVSS | high polyreactivity
QVQLVESGGRLVQAGGSLRLSCAASGRIFALNAMGWYRQAPGKERELVAAITWGGGSTYYADSVKGRFTISRDNAKNTVYLQMNSLKPVDTAVYYCAARYVFWPYWISGDSWGQGTQVTVSS | low polyreactivity
QVQLVESGGRLVQAGGSLRLSCAASGRIFGYYAMGRYRQAPGKERQLVAAITSGGSTYYADSVKGRFTISRDNATNTVYLQMHSLKPEDTADYYCNARYWGRTKVYYWGQGTQVTVSS | high polyreactivity
QVQLVESGGRLVQAGGSLRLSCAASGRIFTGYAMGWYRQAPGKERELVAAISSRGGSTYYADYVKVRFTISRDNAKNTVYLQMNSLKPEDTAVYYCNAYQWRHRYTMYYWGQGTQVTVSS | high polyreactivity
QVQLVESGGRLVQAGGSLRLSCAASGRISWSYAMGWYRQAPGKERELVAAITSGGTTNYADSVKGRFTISRDNAKNTVYLQMNSLKPEDTAVYYCARDSYQLGLIRDPLEYDYWGQGTQVTVSS | low polyreactivity
QVQLVESGGRLVQAGGSLRLSCAASGRTFEIYSMGRYRHAPGKERELVAAITSGGSTYYADSVKGRFTISRDNAKNTVYLQMNSLKPEDTAVYYCNAYLYYDAHGVDYWGQGTQVTVSS | high polyreactivity
QVQLVESGGRLVQAGGSLRLSCAASGRTFHKNAMGWYRQAPGKERELVAAISGSGGSTYYADSVKGRFTISRDNAKNTVYLQMNSLKPEDTAVYYCAADSSYYEEDYWGQGTHVTVSS | high polyreactivity
QVQLVESGGRLVQAGGSLRLSCAASGRTFLVNDMGWYRQAPGKERELVAAINYNAGSTFYADSVKGRFTISRDIAKNTVYLQMNSLKPEDTAVYYCATDVYGYVEYDYWGQGTQVTVSS | low polyreactivity
QVQLVESGGRLVQAGGSLRLSCAASGRTFQSYAMGWYRQAPGKERELVAAITITGGRTYYADSVKGRFTISRDNAKNTVYLQMNSLKPEDTAVYYCAAEEYSHYTLGYDYWGQGTQVTVSS | low polyreactivity
QVQLVESGGRLVQAGGSLRLSCAASGRTFRAYVMGWYRQSPGKERELVAAISSSGGRTYYADSVKGRFTISRDNAKNTVYLQMNSLKPEDTAVYYCAAQAVRGGIGEDDYWGQGTQVTVSS | high polyreactivity
QVQLVESGGRLVQAGGSLRLSCAASGRTFRGYAMGWYRQAPGKEREWVAAISSGGSTYYADSVKGRFTISRDNAKNTVYFQMNSLKPEDTAVSYCDRAVGNYRTLEFDYWGQGTQVTVSS | low polyreactivity
QVQLVESGGRLVQAGGSLRLSCAASGRTFSTNVMGRYRQAPGKVRELVAAITTSSSRTYYADSVKGRFTISRDNAKNTVYLQMNSLKPEDTAVYYCAAGIHGSWSFDYWGQGTQVTLSS | low polyreactivity
QVQLVESGGRLVQAGGSLRLSCAASGRTFTAYTMGGYRQAPGKERELVASNSSGVTYADSVKGRFTISRDNAKNTVYLQMNSLKPEDTAVYYCAARLWYVQGYVPYVHHRFDYWGQGTQVTVSS | low polyreactivity
QVQLVESGGRLVQAGGSLRLSCAASGRTFVTNAMGWYRQAPGQERELVAAISSNGGSTYYADSVKGRFTISRDNAKNTVYLQMNSLKPEDTAVYYCNAEGQPLYVSWHDHRYIYGFDYWGQGTQVTVSS | low polyreactivity
QVQLVESGGRLVQAGGSLRLSCAASGRTSVVHAMGWYRTAPGKERELVAAITSGGSTHYPDSVKGRFTISRDNAKNTVYLQMNSLKPEDTAVYYCNARDRRRTNLQDYWGQGTQVTVSS | low polyreactivity
QVQLVESGGRLVQAGGSLRLSCAASGSIFLAYAMGWYRQAPGKEREFVAAISFSDGSTYYADSVKGRFTISRDNAKNTVYLQMNSLKPEDTAVYYCNKGASPDDYDYWGQGTQVTVSS | low polyreactivity
QVQLVESGGRLVQAGGSLRLSCAASGSIFRANAMVWYRQAPGNERELVAAISPNGGSTYYADSVKGRFTISRDHAKNTVYLQMNSLKPEDTAVYYCNTDHRNIWFRFKYDYWGQGTQVTVSS | high polyreactivity
QVQLVESGGRLVQAGGSLRLSCAASGSIFRSYAMAWYRPAPGKERELVAGISYSGGSTYYADSVKGRFTISRDNAKNTVYLQMNSLKPEDTAVYYCNVDGGTYFFFVGAWGEYDYWGQGTQVTVSS | low polyreactivity
QVQLVESGGRLVQAGGSLRLSCAASGSIIVYNTMGWYRQAPGKERELVAAITVRDDSTYYADSVKGRFTISRDNAKNTVYLQMNSLKPEDTAVYYCNARGNFLIGRDYWGQGTQVTVSS | low polyreactivity
QVQLVESGGRLVQAGGSLRLSCAASGSTFGRYVMGWYRQTPGKERELVAAISYSGGRTYYADSVKLRFTISRDNAKNTVYLQMNSLNPEDTAVFYCATRVTLTRWLYDYWGQGSQVTVSS | high polyreactivity
